Experimental data published in patent US20190322765A1 (Hoffmann-La Roche, published 2019).
“And” between values parts separate entries of the source, which are not always exact repeats. Equal entries are not always repeated.

What was measured:
[1] = biological target: T1, IL-2R βγ heterodimer on human cells (NK92 cells, NK and T cells of PBMC) (human, UniProt P14784 27-551; P31785 23-369); experiment: cell-based or functional assay
T1 sequence (looked up) 1: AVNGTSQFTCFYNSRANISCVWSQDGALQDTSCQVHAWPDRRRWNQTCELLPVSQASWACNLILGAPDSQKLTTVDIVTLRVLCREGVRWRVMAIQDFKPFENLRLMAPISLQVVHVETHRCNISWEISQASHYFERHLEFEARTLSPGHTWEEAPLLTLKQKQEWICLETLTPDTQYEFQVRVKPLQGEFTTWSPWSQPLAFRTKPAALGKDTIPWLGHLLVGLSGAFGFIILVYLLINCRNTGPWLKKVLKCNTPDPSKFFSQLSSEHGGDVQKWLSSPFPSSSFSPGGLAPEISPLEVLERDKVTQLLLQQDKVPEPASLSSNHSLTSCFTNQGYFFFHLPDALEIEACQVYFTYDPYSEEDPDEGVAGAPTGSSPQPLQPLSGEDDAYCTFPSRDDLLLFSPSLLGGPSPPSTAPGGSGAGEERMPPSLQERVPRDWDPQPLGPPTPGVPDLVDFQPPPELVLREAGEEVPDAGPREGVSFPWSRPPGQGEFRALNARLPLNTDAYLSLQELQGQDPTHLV
T1 sequence (looked up) 2: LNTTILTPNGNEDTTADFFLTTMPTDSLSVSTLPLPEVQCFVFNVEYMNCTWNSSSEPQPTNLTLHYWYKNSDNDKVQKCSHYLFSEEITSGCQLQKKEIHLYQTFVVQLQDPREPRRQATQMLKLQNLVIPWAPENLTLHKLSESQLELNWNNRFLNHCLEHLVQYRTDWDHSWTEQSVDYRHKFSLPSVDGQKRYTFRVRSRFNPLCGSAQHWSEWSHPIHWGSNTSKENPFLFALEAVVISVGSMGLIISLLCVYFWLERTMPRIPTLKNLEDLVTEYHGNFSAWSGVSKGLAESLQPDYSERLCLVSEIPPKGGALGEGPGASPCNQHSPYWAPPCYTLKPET

[2] = biological target: T2, cynomolgus IL-2R α-subunit, recombinant monomeric (cynomolgus, UniProt H6WS54 22-240); experiment: SPR, receptor on CM5, 25°C
T2 construct: also called Cyno IL-2R α
T2 sequence: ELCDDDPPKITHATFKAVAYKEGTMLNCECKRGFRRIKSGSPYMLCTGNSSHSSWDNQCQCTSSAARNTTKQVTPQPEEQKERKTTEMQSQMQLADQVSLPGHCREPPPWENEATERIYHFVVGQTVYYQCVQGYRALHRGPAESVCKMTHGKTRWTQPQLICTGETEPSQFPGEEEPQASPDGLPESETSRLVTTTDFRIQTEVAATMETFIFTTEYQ

[3] = biological target: T3, murine IL-2R α-subunit, recombinant monomeric (murine, UniProt P01590 22-236, limits assumed); experiment: SPR, receptor on CM5, 25°C
T3 construct: also called Mu IL-2R α
T3 sequence (looked up): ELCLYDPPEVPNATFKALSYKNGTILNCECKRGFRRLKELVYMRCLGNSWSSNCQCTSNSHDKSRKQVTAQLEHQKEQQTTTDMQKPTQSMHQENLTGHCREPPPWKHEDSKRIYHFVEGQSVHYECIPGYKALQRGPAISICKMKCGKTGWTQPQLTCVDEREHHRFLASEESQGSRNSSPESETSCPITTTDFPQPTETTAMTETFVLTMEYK

[4] = biological target: T4, human IL-2R α-subunit, monomeric, with AcTev cleavage site and Avi His tag (human); experiment: SPR, receptor on CM5, 25°C
T4 construct: also called Hu IL-2R α; CD25
T4 chain: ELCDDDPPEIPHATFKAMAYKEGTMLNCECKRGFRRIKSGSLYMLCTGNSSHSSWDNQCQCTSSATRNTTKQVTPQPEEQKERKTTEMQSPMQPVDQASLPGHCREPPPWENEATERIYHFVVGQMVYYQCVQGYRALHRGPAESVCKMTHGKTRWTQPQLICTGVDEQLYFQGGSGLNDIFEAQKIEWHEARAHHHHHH

[5] = biological target: T5, human FAP expressed on stably transfected HEK293 cells (human, UniProt Q12884 1-760); experiment: FACS on FAP-expressing HEK cells
T5 construct: whole, on cells

[6] = biological target: T6, cynomolgus IL-2R βγ heterodimer (β knob γ hole Fc fusion) (cynomolgus); experiment: SPR, receptor on CM5, 25°C, 1:1 fit
T6 construct: also called Cyno IL-2R βγ

[7] = biological target: T7, human IL-2R βγ heterodimer, subunit-Fc knobs-into-holes fusion (human); experiment: SPR, receptor on CM5, 25°C, 1:1 fit
T7 construct: The entries may hold a leader peptide; also called Hu IL-2R βγ; human IL2-R β knob γ hole heterodimer

[8] = biological target: T8, murine IL-2R βγ heterodimer (β knob γ hole Fc fusion) (murine, UniProt P16297 27-240; P34902 23-263); experiment: SPR, receptor on CM5, 25°C, 1:1 fit
T8 construct: also called Mu IL-2R βγ; mouse IL-2R βγ heterodimer; not shown: Fc knob/hole part
T8 sequence (looked up) 1: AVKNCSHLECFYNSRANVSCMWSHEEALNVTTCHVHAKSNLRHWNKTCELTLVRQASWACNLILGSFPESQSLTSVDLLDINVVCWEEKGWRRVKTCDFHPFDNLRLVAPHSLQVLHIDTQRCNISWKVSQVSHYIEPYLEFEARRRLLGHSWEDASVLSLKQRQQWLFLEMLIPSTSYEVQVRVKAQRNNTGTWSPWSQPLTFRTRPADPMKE
T8 sequence (looked up) 2: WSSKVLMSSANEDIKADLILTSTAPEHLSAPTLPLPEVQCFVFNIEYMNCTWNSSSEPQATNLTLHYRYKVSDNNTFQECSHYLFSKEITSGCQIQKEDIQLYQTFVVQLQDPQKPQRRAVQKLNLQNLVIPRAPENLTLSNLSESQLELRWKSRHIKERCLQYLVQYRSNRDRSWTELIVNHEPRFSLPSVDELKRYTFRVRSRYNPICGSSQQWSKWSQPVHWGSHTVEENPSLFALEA

[9] = biological target: T6, cynomolgus IL-2R βγ heterodimer (β knob …); experiment: SPR, receptor on CM5, 37°C, 1:1 fit
[10] = biological target: T7, human IL-2R βγ heterodimer, subunit-Fc …; experiment: SPR, receptor on CM5, 37°C, 1:1 fit
[11] = biological target: T8, murine IL-2R βγ heterodimer (β knob γ …); experiment: SPR, receptor on CM5, 37°C, 1:1 fit
[12] = biological target: T7, human IL-2R βγ heterodimer, subunit-Fc …; experiment: SPR, receptor on CM5, 25°C, apparent KD, 1:1 fit
[13] = biological target: T5, human FAP expressed on stably …; experiment: FACS on HEK 293-human FAP cells, median fluorescence against concentration
[14] = biological target: T9, human DPPIV on transfected HEK 293 cells (human, UniProt P27487 1-766); experiment: FACS on HEK 293-human DPPIV cells, with HEK mock-transfected cells, cells only and sec. antibody as controls; concentration not shown
T9 construct: whole, on cells; also called CD26

[15] = biological target: FAP on GM05389 fibroblasts; experiment: FACS on GM05389 fibroblasts, surface-bound construct detected with secondary antibody after the times shown (internalization analysis); concentration not shown

EC50 of STAT5 phosphorylation, CD8+ T cells [1]: 20.6 nM
EC50 of STAT5 phosphorylation, NK cells [1]: 3.47 nM
EC50 of STAT5 phosphorylation, Treg cells [1]: 19.7 nM
binding result [2]: no binding (tested: 25 nM)
binding result [3]: no binding (tested: 25 nM)
binding result [4]: no binding (tested: 300 nM)
EC50 [5]: 0.7 nM
Kd [6]: 8.9 nM and 8.4 nM
Kd [7]: 7.5 nM and 6.9 nM
Kd [8]: 66 nM and 54 nM
Kd [9]: 21.3 nM and 21.2 nM
Kd [10]: 14.3 nM and 14.7 nM
Kd [11]: 142 nM and 106 nM
Kd [12]: 11.4 nM
EC50 (read off the curve) [13]: ~10 nM
binding result [14]: no binding
binding result [15]: binds
B1: 28H1 Fab-IL-2 qm-Fab (other)
chain: EVQLLESGGGLVQPGGSLRLSCAASGFTFSSHAMSWVRQAPGKGLEWVSAIWASGEQYYADSVKGRFTISRDNSKNTLYLQMNSLRAEDTAVYYCAKGWLGNFDYWGQGTLVTVSSASTKGPSVFPLAPSSKSTSGGTAALGCLVKDYFPEPVTVSWNSGALTSGVHTFPAVLQSSGLYSLSSVVTVPSSSLGTQTYICNVNHKPSNTKVDKKVEPKSCDSGGGGSGGGGSGGGGAPASSSTKKTQLQLEHLLLDLQMILNGINNYKNPKLTRMLTAKFAMPKKATELKHLQCLEEELKPLEEVLNGAQSKNFHLRPRDLISNINVIVLELKGSETTFMCEYADETATIVEFLNRWITFAQSIISTLTSGGGGSGGGGSGGGGEVQLLESGGGLVQPGGSLRLSCAASGFTFSSHAMSWVRQAPGKGLEWVSAIWASGEQYYADSVKGRFTISRDNSKNTLYLQMNSLRAEDTAVYYCAKGWLGNFDYWGQGTLVTVSSASTKGPSVFPLAPSSKSTSGGTAALGCLVKDYFPEPVTVSWNSGALTSGVHTFPAVLQSSGLYSLSSVVTVPSSSLGTQTYICNVNHKPSNTKVDKKVEPKSCD
light: EIVLTQSPGTLSLSPGERATLSCRASQSVSRSYLAWYQQKPGQAPRLLIIGASTRATGIPDRFSGSGSGTDFTLTISRLEPEDFAVYYCQQGQVIPPTFGQGTKVEIKRTVAAPSVFIFPPSDEQLKSGTASVVCLLNNFYPREAKVQWKVDNALQSGNSQESVTEQDSKDSTYSLSSTLTLSKADYEKHKVYACEVTHQGLSSPVTKSFNRGEC
notes: Fab-IL-2-Fab immunoconjugate against FAP with quadruple mutant IL-2; also called FAP 28H1 qm
